Results on 5 molecules are retold here after publication PMC7191749, “Low phosphatase activity of LiaS and strong LiaR-DNA affinity explain the unusual LiaS to LiaR in vivo stoichiometry” (BMC Microbiology, 2020).

One series deals with T1, LiaR^N (RD of LiaR) (Bacillus subtilis, UniProt O32197).
T1 construct: receiver domain, tagless, Gly-131 codon changed to stop (residues 1-130); pET26b, E. coli BL21(DE3); calculated mass 14,029 (printed as kD)
Nature of the series: phosphorylation by acetyl phosphate. Type of series: biochemical. The following applies: covalent phosphorylation of the stand-alone receiver domain.

Series [1] has as its target T2, LiaS (GST-LiaS, liaS^126) (Bacillus subtilis, UniProt O32198).
T2 construct: cytoplasmic domain, residues 126-360 (TM and HAMP removed), fused to C-terminus of GST; pGEX-4T-1, E. coli BL21(DE3); calculated mass 52,431 (printed as kD)
In words: autophosphorylation, […] incorporation by SDS-PAGE phosphorimaging, kobs against ATP. Type of series: biochemical. The note with it: labelled compound; pH 7.4, 50 mM KCl, 5 mM MgCl2, 10 mM CaCl2, 25 °C; 5 μM LiaS; 10-250 μM ATP; apparent dissociation constant from kinetics; read-out: KS.

The test system of series [2] is LiaR (Bacillus subtilis 168). Nature of the series: EMSA. The following applies: 5 mM Mg2+; unphosphorylated; EMSA: 10 mM Tris pH 7.5, 50 mM KCl, 1 mM DTT, 5 mM MgCl2, 10 ng herring sperm DNA, 2.5% glycerol, 25 C, 30 min, 9% native PAGE; footprinting as in ref 35.
Series [3] has as its system LiaRC (effector domain) (Bacillus subtilis 168). In words: EMSA. The following applies: 5 mM Mg2+; EMSA: 10 mM Tris pH 7.5, 50 mM KCl, 1 mM DTT, 5 mM MgCl2, 10 ng herring sperm DNA, 2.5% glycerol, 25 C, 30 min, 9% native PAGE; footprinting as in ref 35.
The target of series [4] is T3, LiaR (Bacillus subtilis 168) (UniProt O32197).
T3 sequence: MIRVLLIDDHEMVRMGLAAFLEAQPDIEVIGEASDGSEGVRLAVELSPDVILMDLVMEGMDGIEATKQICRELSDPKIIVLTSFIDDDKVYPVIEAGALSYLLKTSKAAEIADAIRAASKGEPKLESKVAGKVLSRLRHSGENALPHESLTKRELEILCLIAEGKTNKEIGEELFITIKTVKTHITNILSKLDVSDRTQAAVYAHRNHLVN
In words: EMSA. The note with it: EMSA: 10 mM Tris pH 7.5, 50 mM KCl, 1 mM DTT, 5 mM MgCl2, 10 ng herring sperm DNA, 2.5% glycerol, 25 C, 30 min, 9% native PAGE; footprinting as in ref 35. In general terms: In EMSA bound probe runs differently from free probe, usually more slowly.

In series [5] the target is T4, LiaRC (effector domain) (Bacillus subtilis 168) (UniProt O32197).
T4 sequence: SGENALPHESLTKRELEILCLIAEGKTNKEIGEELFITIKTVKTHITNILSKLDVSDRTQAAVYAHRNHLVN
Nature of the series: EMSA. The following applies: EMSA: 10 mM Tris pH 7.5, 50 mM KCl, 1 mM DTT, 5 mM MgCl2, 10 ng herring sperm DNA, 2.5% glycerol, 25 C, 30 min, 9% native PAGE; footprinting as in ref 35.

For series [6], the target named is T3, LiaR (Bacillus subtilis 168). In words: DNase I footprinting. The note with it: EMSA: 10 mM Tris pH 7.5, 50 mM KCl, 1 mM DTT, 5 mM MgCl2, 10 ng herring sperm DNA, 2.5% glycerol, 25 C, 30 min, 9% native PAGE; footprinting as in ref 35.
For series [7], the target named is T5, VraR (Staphylococcus aureus) (UniProt Q7A2Q1).
T5 sequence: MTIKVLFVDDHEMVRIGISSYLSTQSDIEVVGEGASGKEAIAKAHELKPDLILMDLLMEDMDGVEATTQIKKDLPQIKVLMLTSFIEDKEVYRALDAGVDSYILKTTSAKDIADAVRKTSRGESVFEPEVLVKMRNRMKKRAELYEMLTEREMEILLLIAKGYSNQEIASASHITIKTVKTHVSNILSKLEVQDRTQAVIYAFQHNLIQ
In words: DNase I footprinting. The following applies: EMSA: 10 mM Tris pH 7.5, 50 mM KCl, 1 mM DTT, 5 mM MgCl2, 10 ng herring sperm DNA, 2.5% glycerol, 25 C, 30 min, 9% native PAGE; footprinting as in ref 35.

The series “native-PAGE” concerns the molecule itself. In words: native-PAGE.

T2 sequence (O32198 126-360): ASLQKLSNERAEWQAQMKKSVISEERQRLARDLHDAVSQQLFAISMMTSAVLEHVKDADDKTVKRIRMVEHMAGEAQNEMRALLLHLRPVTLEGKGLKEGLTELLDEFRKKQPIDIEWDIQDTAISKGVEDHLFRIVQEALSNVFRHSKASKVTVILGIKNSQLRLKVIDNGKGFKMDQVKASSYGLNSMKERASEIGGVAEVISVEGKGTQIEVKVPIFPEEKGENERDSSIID

On to `CC(=O)OP(=O)(O)O` [acetyl phosphate], for which the “phosphorylation by acetyl phosphate” value on LiaR^N (RD of LiaR) is given as “RD of LiaR also underwent phosphorylation by acetyl phosphate”.

On to `Nc1ncnc2c1ncn2[C@@H]1O[C@H](COP(=O)(O)OP(=O)(O)OP(=O)(O)O)[C@@H](O)[C@H]1O` [ATP], for which the Kd in series [1] stood at 7 ± 1 µM.

Regarding PliaI (-162 to +31), the Kd in series [2] worked out at 200 nM; in series [3] it was 20 µM.

For “TTCATGCAGATCCTCCTTTCGTTTTCCTTGTCTTCATCTTATACAAGTTGGAAGATATGCAAAACGAATCAGAGATTGATTTTTATATAAGACCGGAGTCGTATCTCGCACCGGACCCATTGGCACAAAAAAACGCCATGCACGAGGCATGGCGTTTTAAAACCCTTTACAGATGAACACTTGCTTCCCTTTC (double strand) [PliaI (-162 to +31)]”, the figures for the Kd in [4] and in [5] were 200 nM and 20 µM, respectively. Further, the binding result in series [6] and in series [7] was “binds” in each case.

B1: LiaR 1-211 (protein)
chain: T3 sequence
In the series “native-PAGE”, B1 yielded a Kd of more than 20 µM.
